Measurements: publication PMC3124363 (Nature chemical biology, 2011)

B1: p21-KID-LH−3 (p21-KID with sub-domain LH shortened by three residues) (domain or fragment, human, UniProt P38936 9-84, looked up)
chain: RQNPCGSKACRRLFGPVDSEQLSRDCDALMAGCIQEAWNFDFVTETPLEGDFAWERVRGLGLPKLYLPTGPRR
B2: p21-KID-LH+3 (p21-KID with sub-domain LH lengthened by three residues) (domain or fragment, human, UniProt P38936 9-84, looked up)
chain: RQNPCGSKACRRLFGPVDSEQLSRDCDALMAGCIQEARERALRWNFDFVTETPLEGDFAWERVRGLGLPKLYLPTGPRR

Molecular target: GST-Cdk1/GST-cyclin B1 complex (UniProt P06493 1-297; P14635 1-433)
Assay: cell-based or functional assay

Chain of GST-Cdk1/GST-cyclin B1 complex (P06493 whole entry, chain 1 of 2): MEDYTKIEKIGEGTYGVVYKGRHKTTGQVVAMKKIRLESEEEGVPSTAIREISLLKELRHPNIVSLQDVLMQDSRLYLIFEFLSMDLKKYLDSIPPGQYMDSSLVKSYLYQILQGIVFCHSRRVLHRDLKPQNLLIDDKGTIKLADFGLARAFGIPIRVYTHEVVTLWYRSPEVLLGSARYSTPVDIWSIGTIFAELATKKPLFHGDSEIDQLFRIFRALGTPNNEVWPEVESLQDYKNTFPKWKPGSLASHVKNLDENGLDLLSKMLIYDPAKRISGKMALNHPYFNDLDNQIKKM
Chain of GST-Cdk1/GST-cyclin B1 complex (P14635 whole entry, chain 2 of 2): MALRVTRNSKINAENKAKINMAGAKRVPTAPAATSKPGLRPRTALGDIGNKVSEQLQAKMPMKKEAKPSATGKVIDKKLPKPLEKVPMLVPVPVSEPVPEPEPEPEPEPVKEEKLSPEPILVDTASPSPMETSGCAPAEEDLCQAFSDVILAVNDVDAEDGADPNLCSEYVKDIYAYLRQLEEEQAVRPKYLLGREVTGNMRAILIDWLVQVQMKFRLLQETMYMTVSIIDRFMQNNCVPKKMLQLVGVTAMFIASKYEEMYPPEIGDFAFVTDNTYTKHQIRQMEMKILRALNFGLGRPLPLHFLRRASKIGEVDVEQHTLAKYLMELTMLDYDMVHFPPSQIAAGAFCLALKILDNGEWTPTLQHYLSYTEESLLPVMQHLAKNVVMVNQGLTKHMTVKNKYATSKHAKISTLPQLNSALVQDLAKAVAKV

| Binder | IC50 of inhibition of Cdk1/cyclin B1 kinase activity in vitro (substrate Rb^C) |
| --- | --- |
| B1 | 218 nM |
| B2 | 71 nM |
